Measured values from patent publication US20150197558A1 (published 2015).

Tests used:
Assay in all cases: ELISA, antigen coated
[1] = molecular target: T1, IHF from Pseudomonas aeruginosa (Pseudomonas aeruginosa, UniProt Q51472 2-100)
T1 construct: also called IHF (Pa); P. aeruginosa; not shown: poly-histidine tag
T1 sequence: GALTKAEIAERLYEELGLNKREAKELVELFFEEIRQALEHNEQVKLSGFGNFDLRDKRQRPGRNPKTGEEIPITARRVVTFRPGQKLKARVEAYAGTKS

[2] = molecular target: T2, IHF from Acinetobacter baumannii (Acinetobacter baumannii, UniProt A3M2B0 1-98)
T2 construct: also called Ab
T2 sequence: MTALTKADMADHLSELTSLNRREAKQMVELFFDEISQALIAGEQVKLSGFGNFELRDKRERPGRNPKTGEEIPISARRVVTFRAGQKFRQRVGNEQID

[3] = molecular target: T3, IHF from Haemophilus influenzae (Haemophilus influenzae, UniProt P43723 1-96)
T3 construct: also called IHF (Hi); H. influenzae; not shown: poly-histidine tag
T3 sequence: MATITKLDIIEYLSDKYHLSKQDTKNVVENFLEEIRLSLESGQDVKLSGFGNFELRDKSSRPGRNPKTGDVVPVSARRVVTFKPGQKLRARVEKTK

[4] = molecular target: T4, IHF from Klebsiella pneumoniae (Klebsiella pneumoniae, UniProt A6TAI1 1-99)
T4 construct: also called IHF (Kp); K. pneumoniae
T4 sequence: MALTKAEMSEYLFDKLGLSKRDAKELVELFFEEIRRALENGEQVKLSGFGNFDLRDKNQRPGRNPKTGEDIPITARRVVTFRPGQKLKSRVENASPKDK

Measured: binding result

B1: TRL1337 (antibody, V domains shown)
VH: QVQLLESGPGLVKPSETPSLTCTVSGGSIRSYYWSWIRQPPGKGLEWIGYIYYSGSTNYNPSLKSRVTISVDMSKNQFSLKLSSVTAADTAMYYCARVYGGSGSYDFDYWGQGTLVTVSS
VL: DIVLTQSPSASGSPGQSVTISCTGTSSDVGGYNYVSWYQQLPGKAPKLMIYEVTKRPSGVPDRFSGSKSGNTASLTVSGLQAEDEADYYCSSFAGSNNHVVFGGGTKLTVL
no binding: all assays above
